B1: dsAT (dsDNA)
DNA 1: TTAATTAAATAAATTAAAAAATTTTTTAATTAAATTAATTAATAAATTAAAATAAATTTTTTAATTAAATTTTAA
DNA 2: TTAAAATTTAATTAAAAAATTTATTTTAATTTATTAATTAATTTAATTAAAAAATTTTTTAATTTATTTAATTAA
B2: ssAT (ssDNA)
DNA: B1 DNA 1
B3: dsGC (dsDNA)
DNA 1: CGGGGCGCCGCGGGGCCCCCGGCCCGCCCCGCGGGGCGCCGGGCCCCGCC
DNA 2: GGCGGGGCCCGGCGCCCCGCGGGGCGGGCCGGGGGCCCCGCGGCGCCCCG

The first data set deals with T1, His-GFP-KERP2 (Entamoeba histolytica, UniProt C4LZX9 1-239).
T1 sequence: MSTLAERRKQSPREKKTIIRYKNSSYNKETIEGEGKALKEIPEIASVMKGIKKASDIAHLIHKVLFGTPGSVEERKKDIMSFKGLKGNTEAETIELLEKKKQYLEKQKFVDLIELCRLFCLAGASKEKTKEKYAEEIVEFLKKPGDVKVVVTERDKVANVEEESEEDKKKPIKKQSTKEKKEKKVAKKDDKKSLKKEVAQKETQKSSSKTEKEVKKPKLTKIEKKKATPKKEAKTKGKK
Put plainly: EMSA.
Consider B1, for which the binding result is “binds”.

B2: the binding result is “binds”.

As to B3, the binding result is “no binding”.

Another data set concerns the target T2, His-GFP-KERP2Δ185-239 (Entamoeba histolytica, UniProt C4LZX9 1-184, del185-239).
T2 sequence: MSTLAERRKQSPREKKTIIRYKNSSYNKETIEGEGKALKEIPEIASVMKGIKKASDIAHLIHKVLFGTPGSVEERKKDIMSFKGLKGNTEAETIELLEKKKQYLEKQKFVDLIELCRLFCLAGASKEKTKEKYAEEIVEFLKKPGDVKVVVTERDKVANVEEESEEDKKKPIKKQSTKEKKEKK
The data set can be described thus: EMSA. (In general: In EMSA bound probe runs differently from free probe, usually more slowly.)
As for B1, the binding result was “binds”.

In the case of B2, the binding result is “binds”.

On to B3, for which the binding result is reported as “no binding”.

These data come from publication PMC13184332.
